Common to all, as to assay: fluorescence polarisation
(In general: Polarisation of emitted light reports the rotation of a fluorescent probe.)

Test [1] concerns the target T1, DegS N197A/H198P (E. coli, UniProt P0AEE3 27-355, N197A | H198P).
T1 sequence (looked up): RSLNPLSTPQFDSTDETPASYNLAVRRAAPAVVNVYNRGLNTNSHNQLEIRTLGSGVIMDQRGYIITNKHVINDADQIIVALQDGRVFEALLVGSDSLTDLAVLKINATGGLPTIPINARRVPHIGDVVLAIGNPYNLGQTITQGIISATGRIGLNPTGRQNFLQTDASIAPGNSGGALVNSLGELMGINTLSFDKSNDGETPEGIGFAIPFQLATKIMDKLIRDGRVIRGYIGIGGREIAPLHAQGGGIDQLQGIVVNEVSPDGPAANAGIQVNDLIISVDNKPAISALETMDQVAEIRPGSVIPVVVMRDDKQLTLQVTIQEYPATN

In test [2] the target is T2, DegS D221A (E. coli, UniProt P0AEE3 27-355, D221A).
T2 sequence (looked up): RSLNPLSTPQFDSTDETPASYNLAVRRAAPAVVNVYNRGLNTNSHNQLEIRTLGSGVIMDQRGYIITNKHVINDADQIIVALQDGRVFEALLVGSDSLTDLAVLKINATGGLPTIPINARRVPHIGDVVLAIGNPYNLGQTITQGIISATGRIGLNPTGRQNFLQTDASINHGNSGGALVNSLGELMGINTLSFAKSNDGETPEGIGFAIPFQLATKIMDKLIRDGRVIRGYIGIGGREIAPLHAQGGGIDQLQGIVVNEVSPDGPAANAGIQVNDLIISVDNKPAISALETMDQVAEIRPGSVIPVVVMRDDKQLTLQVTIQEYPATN

For test [3], the target named is T3, DegS L164A (E. coli, UniProt P0AEE3 27-355, L164A).
T3 sequence (looked up): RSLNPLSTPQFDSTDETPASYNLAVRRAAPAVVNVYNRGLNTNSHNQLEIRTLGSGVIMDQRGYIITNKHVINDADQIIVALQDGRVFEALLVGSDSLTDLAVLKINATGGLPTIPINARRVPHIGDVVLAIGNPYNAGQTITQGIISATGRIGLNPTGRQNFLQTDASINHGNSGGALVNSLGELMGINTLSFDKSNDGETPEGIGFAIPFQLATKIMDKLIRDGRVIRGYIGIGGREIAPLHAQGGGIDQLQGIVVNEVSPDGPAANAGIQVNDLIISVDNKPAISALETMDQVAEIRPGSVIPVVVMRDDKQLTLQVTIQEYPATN

Test [4] has as its target T4, DegS T169A/H198P (E. coli, UniProt P0AEE3 27-355, T169A | H198P).
T4 sequence (looked up): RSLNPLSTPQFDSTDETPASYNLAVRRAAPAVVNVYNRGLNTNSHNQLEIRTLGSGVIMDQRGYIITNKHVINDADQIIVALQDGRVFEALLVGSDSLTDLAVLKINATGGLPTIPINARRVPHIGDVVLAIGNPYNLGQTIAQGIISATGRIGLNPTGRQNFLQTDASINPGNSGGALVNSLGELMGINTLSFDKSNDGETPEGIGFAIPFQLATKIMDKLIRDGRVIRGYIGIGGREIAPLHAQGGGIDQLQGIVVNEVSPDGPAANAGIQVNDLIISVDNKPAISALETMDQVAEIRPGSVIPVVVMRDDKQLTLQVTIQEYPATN

Test [5] deals with T5, DegS N197A (E. coli, UniProt P0AEE3 27-355, N197A).
T5 sequence (looked up): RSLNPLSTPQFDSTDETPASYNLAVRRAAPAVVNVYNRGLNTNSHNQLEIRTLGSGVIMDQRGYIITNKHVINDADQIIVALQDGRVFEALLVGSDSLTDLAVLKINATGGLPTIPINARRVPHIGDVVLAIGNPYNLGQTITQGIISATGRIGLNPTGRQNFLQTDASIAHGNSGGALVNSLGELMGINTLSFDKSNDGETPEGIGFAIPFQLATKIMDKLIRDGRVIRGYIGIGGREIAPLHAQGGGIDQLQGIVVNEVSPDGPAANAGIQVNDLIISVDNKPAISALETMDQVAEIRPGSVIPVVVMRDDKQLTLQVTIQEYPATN

Test [6] concerns the target T6, DegS I232A (E. coli, UniProt P0AEE3 27-355, I232A).
T6 sequence (looked up): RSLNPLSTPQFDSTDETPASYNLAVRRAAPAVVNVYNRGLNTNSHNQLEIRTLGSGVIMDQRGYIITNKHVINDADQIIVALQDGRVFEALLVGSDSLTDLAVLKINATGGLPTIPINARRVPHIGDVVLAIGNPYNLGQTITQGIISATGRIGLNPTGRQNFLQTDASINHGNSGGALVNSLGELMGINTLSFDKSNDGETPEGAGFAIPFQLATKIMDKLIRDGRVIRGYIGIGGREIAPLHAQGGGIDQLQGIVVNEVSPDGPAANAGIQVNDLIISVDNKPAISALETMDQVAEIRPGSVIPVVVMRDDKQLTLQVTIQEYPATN

Where no end group is shown, it is not given here. fluorescein = fluorescein, a fluorescent label on the peptide N-terminus

A word on the Kd: it is the equilibrium constant for the complex coming apart. Read a high Kd as a looser complex. Turning to fluorescein-DNRDGNVYYF [fluorescent OMP peptide fluorescein-DNRDGNVYYF], the Kd in test [1] amounted to 700 ± 100 nM; in test [2], 3200 ± 200 nM; in test [3], 2800 ± 600 nM; in test [4], 2000 ± 200 nM; in test [5], 1400 ± 100 nM; in test [6] it was 2200 ± 300 nM.

The record behind these values is article PMC4351158 (Structure (London, England : 1993), 2015).
